From paper PMC8221569 (Molecular Cell, 2021)
Where a chain is given by its changes, count along the chain named. Numbers in names are those of the source.

B1: GST-DNAJC9 HBD (histone binding domain, 171–249) (domain or fragment)
chain: EVPSYNAFVKESKQKMNARKRRAQEEAKEAEMSRKELGLDEGVDSLKAAIQSRQKDRQKEMDNFLAQMEAKYCKSSKGG
notes: PDB 7CJ0 holds the same limits with C243S; also called GST-tagged DNAJC9 HBD; DNAJC9 HBD WT; source: E. coli BL21 (DE3)-RIL, purified (Glutathione Sepharose 4B, Superdex 200)
B2: DNAJC9 HBD C243S (171–249), GST tag removed (domain or fragment)
chain: B1 chain with C73S
notes: crystallized construct; source: E. coli BL21 (DE3)-RIL, purified (Glutathione Sepharose 4B, 3C protease, Superdex 200)
B3: GST-DNAJC9 HBD F234A L235A (domain or fragment)
chain: B1 chain with F64A, L65A
notes: source: E. coli BL21 (DE3)-RIL, purified (Glutathione Sepharose 4B, Superdex 200)
B4: DNAJC9 HBD (171–249), GST tag removed (domain or fragment)
chain: B1 chain
notes: used in ITC; also called DNAJC9 HBD WT; source: E. coli BL21 (DE3)-RIL, purified (Glutathione Sepharose 4B, 3C protease, Superdex 200)
B5: GST-DNAJC9 HBD M238A Y242A (domain or fragment)
chain: B1 chain with M68A, Y72A
notes: as for B3
B6: GST-DNAJC9 HBD Q224A R227A (domain or fragment)
chain: B1 chain with Q54A, R57A
notes: as for B3
B7: GST-DNAJC9 HBD 4A1 (E195A E196A E199A A200E) (domain or fragment)
chain: B1 chain with E25A, E26A, E29A, A30E
notes: as for B3
B8: DNAJC9 αB C243S (204–249), GST tag removed (domain or fragment)
chain: RKELGLDEGVDSLKAAIQSRQKDRQKEMDNFLAQMEAKYSKSSKGG
notes: crystallized construct; also called isolated DNAJC9 αB helix (C243S); source: E. coli BL21 (DE3)-RIL, purified (Glutathione Sepharose 4B, 3C protease, Superdex 200)

Experiments:
Settings in all cases: both partners purified
[1] = target: T1, MCM2 HBD (61–130)–H3.3–H4 complex ( | human, UniProt P49736 61-130; P84243 1-136; P62805 2-103); experiment: pull-down; GST-tagged protein (1.5 nmol) on Glutathione Sepharose 4B, 1.5 nmol histone complex added; 20 mM Tris pH 7.5, 500 mM NaCl, 4°C, 2 hours; washes with 0.5% Triton X-100; SDS-PAGE
T1 construct: histone H3.3, human; histone H4, human; also called pre-assembled MCM2 HBD-H3.3-H4 complexes; MCM2 HBD–H3.3–H4 complex; source: purified as described previously (Huang et al., 2015); copies: + +

[2] = target: T2, histone H4 (recombinant) (human, UniProt P62805 2-103); experiment: crystal structure; DNAJC9 HBD C243S mixed 1:1 with the MCM2 HBD (61–130)–H3.3 (57–135)–H4 complex, gel filtration in 1 M NaCl; PDB 7CJ0, 2.50 Å
[3] = target: T3, human histones H3.3–H4 tetramer (human, UniProt P84243 1-136; P62805 1-103); experiment: ITC; MicroCal PEAQ-ITC, 20°C, 20 mM Tris-HCl pH 7.5, 500 mM NaCl; 300 μM DNAJC9 HBD in the syringe, 30 μM (dimers) H3-H4 in the cell; one set of sites model; n = 3
T3 construct: histone H3.3, human; histone H4, human; methods call it a tetramer; construct as in Huang et al., 2015; also called pre-assembled H3.3-H4; H3.3 WT-H4; source: bacteria, co-expressed and purified (as in Huang et al., 2015; Superdex 200 in 2 M NaCl); copies: 2 + 2

[4] = target: T2, histone H4 (recombinant); experiment: crystal structure; DNAJC9 αB C243S mixed 1:1 with the MCM2 HBD (61–130)–H3.3 (57–135)–H4 complex, gel filtration in 500 mM NaCl; PDB 7CIZ, 1.80 Å

Row | Binder | binding result [1] | further results
1 | B1 | binds | 
2 | B2 |  | binding result [2]: binds
3 | B3 | binds | 
4 | B4 |  | Kd [3]: 55 nM
5 | B5 | binds | 
6 | B6 | binds | 
7 | B7 | binds | 
8 | B8 |  | binding result [4]: binds
